From the domain aggregation screens of Martell et al. (2025)

Test: soluble fraction after stress (log2 fold change); higher = more stays soluble; pooled small domains, quantitative proteomics
Conditions: stress: 50 degC
How it was run: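 Quantitative proteomics served as the high-throughput read-out for pooled custom libraries of small protein domains. Each was stressed at 50°C. Aggregation propensity is expressed as the base-two log fold change in soluble protein after stress. A higher value means a larger share of the protein remains in solution.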

Sequence | soluble fraction (log2)
HMVEYIENINLSEKQKFIAHEILKEIRGRAIFLRDVGLDYLNLSRKAGTLSGGEAQRIRLATQIGSA | 0.226
HMVFKSAQEGLDFYSKQLNDVDATLGRIRRGEESGNGLYGSNRVKNLEEQRKKLDSFVTAYRNAVNAT | 0.08
HMVFTEEEMLEKIKEYLSTNSYINRRAMETLFNLRQSTALKWLGHFTEIGVLRKEGERNYPVYFLNN | -0.296
HMVGADTISDLISQRGRMIGDKPITNAVIKSGSEFSTINALSKAIASGDARTNDVEGMKPVFR | -0.0638
HMVGKGASIILDRVNLPQYLEKFNEDGFDTIESLKNLNEIDLKEMGVKKGHIRVILNYLHEEY | -0.501
HMVGLKWYDTGNKKPPIGTEYKNTELSEALKGHDRKEFTWKELDVLGVNITDKEQYIVVGENYYTQV | -0.197
HMVGPAHIGLAVAKDQLPHWERHLTANGVEIEGRMRWDHGGESIYFRDPDAHLLELVTPGIWAN | -0.0453
HMVGVDMTVKEEVGKEGVTFTDLRPAGKVEIGNDIYDAVSNTGAFIQKGEKVKIIKYQAGQVYVEKLV | -0.121
HMVIANADVRAKFSKGKDSFVKYYFKEKVLKDGFTEEVKNNIVQALFYLQIVTRIDGESGVLIIDY | -0.0492
HMVIDETVLIDLFERLAEDDRPQRVAFRYILALVLLRKRTLQLIGREDEDDGEIWLLRFKGTDGEPIRV | -0.297
HMVIGKHSGSHTLVNDLAKRGITLDKEESATLLEMVRKAAVGLHRSISSDELYGLYKDMKSGQDPFEDS | 0.0935
HMVINVKEILERIKLVKGFHTQIEIARFLGVSKGTISNWLARNSVDFPLVISKLDGVDLNWLFTGIGMPQ | -3.18
HMVISNDEFEDYLNRATEQLVSELSSGKNPRDAVHDLALTFADQHNKSYDAYQRMADSLEARMHTL | 0.0885
HMVITEQTVTVKYLYEDDTEAAPEHSETHKTGETFEIESPKIDGFTPDYELITGTIANDDLVYIVRYKTTP | -0.282
HMVITQVSTTQTDTTFQYHKVKPKETLFSISRLYEVSIDEIKTINPALNSRELMAGELLKLPIK | -0.0212
HMVKGIVPNLIGKTQDEAKQMAEEYGFSIGTVSEKASDKPKGTVIEQSPKAGAKASGVTSINIVVSDGS | -0.0342
HMVKKYEKVKEYLLERILDGTYVPDLPIPPERELASLLDVNRMTVRRAVEELMYDGYLIRKKGSGTYLTR | -1.57
HMVKLSVGDIVQFAGGPHYVSSSAAKPASSPTAGPAKVTMIYQGAKHPYHIVHTTSASTVWGWVDADKVVK | -0.245
HMVKNLRKLREELGLTQQRLAELTGISKSRIYSYESLDREPDIAGLITLADFFSVSIDYLVGK | -1.78
HMVKPKIILADIGMITETDVTLAKASQAVLIAFNVKPSKEAKKLAEDENIKISTYNIIYEVLDFVKKSMSG | 0.12
HMVLALRGIVQGGAEPLVILSDGRTSQSLAVGERFLAYEVVEIGRTGVRLRGPEGEIWLAMASF | -0.322
HMVLANLQAAEQGDLGIKEGEKLTILQTRPDGWWTARNANGETGLVPK | 0.173
HMVLFDLSEREKEVLKLLADGNSYKMIASRLEITYFTVNAHLKKIYEKLQVHSASEAVSVALRNSL | -1.15
HMVLIQNEDVKDISNYPLLSSVPVFDVFNNKMIIPTFNKDSFNPLIYNFNFNSKRRLIYRVDNTNYLIVIK | 0.0177
HMVLMPIDALRGSSSSSEMRIAAVKFSPSKGWYFSLQERSDEGSSYYEQKVASDGSVSERVKVR | -0.561

Sequence | soluble fraction (log2)
HMVLNVMIEEEVHREIIAAISKLPKERRRVVELSMAGFSQEEIAEKMAISVNTVKTIKLRAYRVLRERLKG | -3.18
HMVLPELRLQGLPTAVLRLINRATALADDYRRLMEIAEDGRIDEWEAPEFERISENIQRVIAAGFEVL | 0.0167
HMVLQHHTATKALSYHTSASASAAVKGSFARGDSVQVVQGGSQTADGAKWHKVKVGSSYYYAAAEHLTP | ≥ 0.62
HMVLTYYSVLGVKTDATTEEIKSTYKQLAIRNHPDRGGSEEVMKMINLAAEILSDPKSRKEYDLSLDA | -2.87
HMVLVLPGEMIHVQVIDEGKEMGQGVGYLDDGTMVVVENGLRHIGRAIDVQVTKVLQTNAGRMIFGQPIL | -0.137
HMVMAELRISVDRLQIGNYIKLPLSWRDHPFLLSSFMIKKEEQIQLIRQLRLKHVFIIPEKSDAPPKPA | -4.15
HMVMNYKKIGKKIADRRILLGITQEELAEKVDSSANYISNIETGIKSGSLIFYIKVANELKLSLDFLFSDE | -0.893
HMVMPTGRVRYYDAEKGFGFLSKDSGGDDVYVRSSALPAGVTSLKRGQKVEFGIIDGKRGEQALSVHLL | -0.0933
HMVMTTVPEVLGMDIRTAASMLTGKNLKYDYDLVESDKPKDEVIEQDQAKGTEVPEGTVVKLKVSKGPA | 0.0583
HMVMTTVPEVLGMDISKAASLLTGKNLDYDYDLVESDKPKDQVIEQDVVKGTEVPEGTVIHLKVSKGPA | 0.228
HMVMVVDVLKALSNNSSDKFFNTSISNAIKAQEDSQEDFVTLFGIEYEKLSPNNGLAVIFTSQ | 0.425
HMVNDDTIAATEAEILALLADKHRHHITELNSIRRPYEQIDAALSSLINEEKIFQEDGMLFV | 0.144
HMVNGEFIDRIKVILQENNATRKKDRLTKTRMYQLLQEEGYEGSYSAFTYQVRIIEEELGINNK | -1.51
HMVNSIQIHKKLRLDKRAGSDNWYARLTLPNGKRLVKTTKTEDIETAKEVALRLYYEVDARIQNKLPAT | -1.45
HMVPADVQHLRDIVDTMTEKQQLVYKLHVLEGYTFTEIAKLMGTSIPNVKKHYDKAILFIKNNF | -0.909
HMVPEEEATKISVQNVGASDYNFTVKGVQANDPTLTLVRGKTYEFDVTSLGHPFWIKTQKVTGSSSQY | 0.1
HMVPLSPRFFDIFRKRKDLTRQNVDVYFRDHPTEITAFERYIKGLVSQSYIPAERADALLLVASQYKAK | -0.784
HMVPSTAVIFTELVSMRSEPATKSPVTHQLTKGTAITINEEKDGWYQVTDQTGNSGWIVKWAVKPTYFTNP | -0.0492
HMVPTYEAYVGKEGLVVGTLRPAGTAEFDGERLDVVSEGEYLEAGTRVQIVRTEGRRIVVRKIN | 0.0504
HMVPVVGTTIPHEFIGKFGSARVMLKPAVEGSGVIAGGSARAVLELAGYKDIKTKVLGTNNPRNVVYATMN | 0.0414
HMVQDDDPNSVAKFIDQVIESNPEQVEQYRSGKEKVFNFFLGQTMRLSKGKANPDLVSELLKEKLS | 0.0395
HMVQIQDIAFSEFLNELEKGNILDVNIKGDLINGNMLDGKKFKTYAPYDPSLVEKLSKQNVTINVEPVN | 0.0938
HMVQMKIRAYELEPNDFFIKQNMTYRVMRIQNGMIYAKHLLNSTPITFGAKSMEFVLWTGKYS | -2.36
HMVQQTEEDVIRDMYVEGKIFTIGEEVTDTYTGVTGKIIRRGTNYVTFMSEDGETYKKWLYEIELA | -1
HMVRDGDTFVVPKMDRFARNVEDTLHLVRELTERGVIFQMGHTVYDPHDPWSKLFLTFLAAIAEA | -0.00927

Sequence | soluble fraction (log2)
HMVREVGYNAFLAMLDSGAVKEVARDESEGQITFLATDEKGKERVYKTGIWPDDTLTERLNTAGVEFA | 0.178
HMVREVSYDQFLHFVEAKQVGMVYQDGESLMFTLKEDVEKEWGVTAYKTGLWPDANLTDRLLDAGVVFS | -0.715
HMVRGNLAEELLKLREEEGISFQEAGARSGIARSTISQVVNQGLRLKPNQEESLWRVIEEVRGVKER | 0.046
HMVRSEDLIGLQGRITLATDVETRGFVELSVKGSLLRRPALSLKGPLAKNTAVVVTASNDHTLEVEAL | -0.573
HMVRSKLEIVPVPEDAVVKIAGLKRLTYQAYQNEDVPYMVYKNGYEAQSGTVFMDTDKTLTVTLEESP | -0.0311
HMVSAMLLHKKEILNLLAEEPEALHFASLLRAFGGRHIKNELKQIVDDLVRSGEILRLRGNRYTLPGADN | -1.21
HMVSATKAFVNGGNIVVSSPKATRVAVYNVAGQKVAEQAFAGKATIKASDFAKGIYVLKFNDNTVLKLT | -0.518
HMVSDAELTSQATTAITAYPGTSVEVKEGQAHLSGTFATEADKQAAIDALKKIQDVKDVHDMATV | 0.123
HMVSDSAELSAFVADVIKENAQAVADYKGGKTNVFGWLMGQIIKKSGGKATPAAAAALLKAELEK | 0.0521
HMVSKQVTVNGIQYYQYTVQKSEGFYAISTKFGVTQDDIILANPSTKEGLRVGQEILIPIKT | -0.186
HMVSLLDWAYKQVRRMLFSGDLPQGQKIVVAQLANQLSISPTPVKEALNRLAVEGLLEAVPRRGFQVR | -0.229
HMVSQELIMLGNRIREYRKERGFSQEILAEKSGVSTNTISRIEGGQMAMSVGILQRIVKALGVDANVMLG | -0.332
HMVSQKPKERELWFREQLELAGLRLDPHAISAINETLGNDTGRFPGIIDTLLSTYGAGKKLSYDDVVMFL | -0.477
HMVSRAFEEETVKRAESGNQEAALFALELAIREIEHSYEKSKIIDYFVSKVRLFLDNGVSLERALGIH | 0.0637
HMVSRKIENPYWANKEKQHIIAEFFYPDTNKRVTASIMNDGSNRDYEEILRGYSIEQIDANTNRRLEER | 0.436
HMVSSEGLASGIERMLVEFGLETDKGRRFAMWSLLYMLGSAPDLDVAFKDPRDREAARTFMDLLDQANA | -0.69
HMVSSVAAISQMIDEKDRYTSEHSHRVAEYARLIGAHMGFAGEELDSLYRSALLHDIGKIAVPDAILNK | -0.338
HMVSTDPVHLFNLGTANRRAGRASEAITSYRKFMEAAPQHPQVPEARAYIHDMEVLLQERQKSEQAASQLS | 0.0843
HMVSTSVTVTGDLNVRADSRADSDLVGALIPGQTVTRLAVLDNGWSKIRFDDGAGTVVEGYVLSEYLQADG | 0.0817
HMVSVEINTVERDETFRKMFTSGWKPENRIQALAVEQAKKNGLGRMSEVAGLASFRGIWKQATEQVALEA | -0.12
HMVSVLDHIVGIGAKRRQSLWNHFGTIDKIKAASIDELLKAPGMNRPSAEAVYYFFEAQRQLRGK | -0.744
HMVTEKNALTIEIEDLTKRFGNQRESLLPILQEVQLKHGHISDFAQQEIARLLDIHPVEVYGVVTFFSFLS | -2.21
HMVTGSIYERKGIYYAIVSYYVDGRRKQKSVSTGLSVKGNKRRALEFLENLKRTYETKESMENMD | -3.16
HMVTIEEMMDRLLTRVQRAVNMSFSEFSGEAKEKVEVIVSFLALLELVKQGAVDVLQHENFSDIRIENT | -0.857
HMVTKQKKLVLTIIERSHGHLSAEEIFFRAREEMPNIALGTVYRNLNSLTEEGIVRRITLPGTSDRFDT | -2.79
